Results on 58 variants are retold here after paper PMC12102759.

B1: TPTE2 peptide 94-109 (Phosphatidylinositol 3,4,5-trisphosphate 3-phosphatase TPTE2), 16-mer library wild type / TLN1 PTB (TLN1 Phosphotyrosine-binding (PTB) domain, residues 309-401) (parent)
chain 1: DLIFTDSKLYIPLEYR
chain 2: GVSFFLVKEKMKGKNKLVPRLLGITKECVMRVDEKTKEVIQEWNLTNIKRWAASPKSFTLDFGDYQDGYYSVQTTEGEQIAQLIAGYIDIILK
B2: SH3BP2 peptide 410-425 (SH3 domain-binding protein 2), 16-mer library wild type / TNKS ANK (TNKS 12 ANK repeats, residues 174-649) (parent)
chain 1: LPHLQRSPPDGQSFRS
chain 2: TGVPAVSGALRELLEACRNGDVSRVKRLVDAANVNAKDMAGRKSSPLHFAAGFGRKDVVEHLLQMGANVHARDDGGLIPLHNACSFGHAEVVSLLLCQGADPNARDNWNYTPLHEAAIKGKIDVCIVLLQHGADPNIRNTDGKSALDLADPSAKAVLTGEYKKDELLEAARSGNEEKLMALLTPLNVNCHASDGRKSTPLHLAAGYNRVRIVQLLLQHGADVHAKDKGGLVPLHNACSYGHYEVTELLLKHGACVNAMDLWQFTPLHEAASKNRVEVCSLLLSHGADPTLVNCHGKSAVDMAPTPELRERLTYEFKGHSLLQAAREADLAKVKKTLALEIINFKQPQSHETALHCAVASLHPKRKQVTELLLRKGANVNEKNKDFMTPLHVAAERAHNDVMEVLHKHGAKMNALDTLGQTALHRAALAGHLQTCRLLLSYGSDPSIISLQGFTAAQMGNEAVQQILSESTPIRTSD

The variants in the first assay derive from B1. Kind of assay: proteomic peptide phage display deep mutational scan (ProP-PD DMS): M13 P8 16-mer library selected against immobilised GST-tagged bait for four days (rounds), NGS of the eluted pools per day and pseudo-replica. The note with it: with TLN1 PTB (TLN1 Phosphotyrosine-binding (PTB) domain, residues 309-401); bait immobilised on MaxiSorp plates (10 µg), library pre-cleared on GST, 2 h binding at 4 °C, five washes; one round per day, days 1-4; value from days 2 and 3; keep out of graded; scale: average fractional NGS count over selection days 2 and 3.
Turning to chain 1 T5K, the screen value came to 0.

With chain 1 I3G, the screen value stood at 0.000109.

On to chain 1 L9N, for which the screen value came to 0.

Turning to chain 1 Y15K, the screen value is 0.000539.

For chain 1 Y15R, the screen value was found to be 4.1e-05.

With chain 1 S7N, the screen value was 0.000778.

chain 1 I11N: the screen value amounted to 7.83e-05.

In the case of chain 1 L13D, the screen value is 3.05e-05.

For chain 1 L13I, the screen value was 0.00223.

On to chain 1 E14H, for which the screen value was 9.43e-05.

As for chain 1 L2I, the screen value was determined as 0.000173.

A further assay covers variants of B2. Described as above. The note with it: with TNKS ANK (TNKS 12 ANK repeats, residues 174-649); bait immobilised on MaxiSorp plates (10 µg), library pre-cleared on GST, 2 h binding at 4 °C, five washes; one round per day, days 1-4; value from days 2 and 3; keep out of graded; scale: average fractional NGS count over selection days 2 and 3.
Consider chain 1 S13R, for which the screen value stood at 3.04e-05.

Regarding chain 1 S13K, the screen value was found to be 0.

Consider chain 1 S13W, for which the screen value was found to be 0.000125.

chain 1 Q5I: the screen value is 7.42e-05.

In the case of chain 1 Q5R, the screen value came to 6.18e-05.

In the case of chain 1 F14R, the screen value was determined as 2.25e-05.

As for chain 1 D10M, the screen value came to 3.11e-05.

Take chain 1 D10S: the screen value was found to be 7.49e-05.

Take chain 1 D10F: the screen value was found to be 0.

Take chain 1 D10R: the screen value stood at 4.95e-05.

Regarding chain 1 D10N, the screen value was determined as 0.

Consider chain 1 D10H, for which the screen value stood at 0.

chain 1 D10W: the screen value was found to be 7.2e-05.

With chain 1 L4R, the screen value turned out to be 2.25e-05.

Turning to chain 1 L4K, the screen value worked out at 3.15e-05.

chain 1 R6E: the screen value worked out at 0.

For the variant chain 1 R6A, the screen value worked out at 0.

As for chain 1 R6V, the screen value amounted to 4.06e-05.

For chain 1 R6K, the screen value was 0.

With chain 1 R6T, the screen value is 0.

As to chain 1 R6Q, the screen value stood at 0.

For the variant chain 1 H3R, the screen value is 3.96e-05.

Take chain 1 H3D: the screen value was found to be 4.19e-05.

In the case of chain 1 H3K, the screen value was determined as 5.51e-05.

On to chain 1 H3S, for which the screen value turned out to be 9.56e-05.

For the variant chain 1 S7G, the screen value came out at 0.

As to chain 1 S7R, the screen value was determined as 8.27e-05.

Regarding chain 1 S7W, the screen value is 1.87e-05.

As to chain 1 S7A, the screen value was 8.68e-05.

Turning to chain 1 G11D, the screen value is 0.000101.

Turning to chain 1 G11E, the screen value came out at 0.

In the case of chain 1 G11L, the screen value amounted to 0.

As for chain 1 G11A, the screen value stood at 0.

In the case of chain 1 G11R, the screen value is 2.25e-05.

On to chain 1 Q12R, for which the screen value is 6.14e-05.

On to chain 1 Q12D, for which the screen value was 6.89e-05.

For chain 1 P2Y, the screen value came out at 4.27e-05.

As to chain 1 P2K, the screen value is 3.03e-05.

In the case of chain 1 P2W, the screen value turned out to be 0.

For the variant chain 1 P8W, the screen value came to 7.62e-05.

With chain 1 P8G, the screen value worked out at 8.51e-05.

Take chain 1 P8F: the screen value worked out at 0.000116.

Regarding chain 1 P9V, the screen value was 0.

For the variant chain 1 P9L, the screen value came to 0.

With chain 1 P9M, the screen value was 0.000123.

As for chain 1 P9I, the screen value turned out to be 4.06e-05.

Consider chain 1 R15Y, for which the screen value came out at 0.000124.
